Where two headings read alike, the source gives them in different places.
Columns and labels:
[1] = target: T1, Aβ1–42 binding to RAGE (Homo sapiens, UniProt Q15109); experiment: ELISA: competitive inhibition of Aβ1–42 binding to RAGE by neutrophil proteins added simultaneously
T1 construct: purchased R&D Systems Inc. (RAGE Fc chimera); Bachem (Aβ1–42)
Description: (§1) The plates were washed three times with PBS containing 0.05% tween (PBST), and then blocked in PBST containing 3% bovine serum albumin (BSA). Indicated proteins were added to the plate in 50 μL PBST containing 0.1% BSA and incubated at 37°C for 70 mins. Wells were washed four times with PBST, and then incubated with 50 μL of goat anti-RAGE primary antibody (0.5 μg/ml) or mouse anti-APP/Aβ antibody (0.5 μg/ml-1 μg/ml) for 1 h. After washing the wells four times with PBST, 50 μL of rabbit anti-goat at 0.16 μg/ml or donkey anti-mouse at 0.04–0.08 μg/ml secondary antibodies were added for 1 h at room temperature.
(§2) All statistics were performed using Graph Pad Prism 6 (GraphPad Software, La Jolla, CA). Data are represented as mean± SEM of results. […] Two-way analysis of variances (ANOVAs) were performed with Dunnett’s multiple comparison tests. […] Kruskal-Wallis tests with Dunn’s multiple comparison tests were used to analyze binding by Far-Western dot blotting (see figure legends 3 and 6 for details on multiple comparison tests). […] To obtain dissociation constants (Kd), half-maximal inhibitory concentrations (IC50), and maximum absorbance values, BSA was subtracted as background and values were fitted to a curve of nonlinear regression.

[2] = target: T2, Aβ1–42 (Homo sapiens, UniProt P05067); experiment: ELISA: binding of Aβ1–42 to coated neutrophil proteins; details: for Log binding (Aβ1–42): 0.5 μg/well coated protein, with protease inhibitor cocktail, log OD 492 nm, mean ± SEM, n = 3
T2 construct: Amyloid beta 1–42 (Aβ1–42), a known RAGE ligand; purchased Bachem (Torrance, CA)
Description: as §1, §2

[3] = target: T2, Aβ1–42; experiment: Far-Western dot blot: binding of Aβ1–42 to spotted neutrophil proteins; details: Aβ1–42 […] (56 nM) with protease inhibitor cocktail; 1 μg spotted protein
Description: After spotting, membranes were rinsed with ultrapure water, and Ponceau S (Sigma Aldrich) was used to stain for spotted proteins. Ponceau S was rinsed off with ultrapure water, and membrane blots were blocked for 2 h at room temperature in PBST containing 3% BSA. […] Blots were washed three times with PBST for 10 min, and then incubated with either rabbit anti-RAGE primary antibody (0.8μg/ml) or mouse anti-APP/Aβ (0.25μg/ml) for 2 h at room temperature. Blots were washed three times with PBST for 10 min, and then incubated with donkey anti-rabbit or donkey anti-mouse secondary antibodies at 0.04μg/ml for 45 min at room temperature. Blots were washed three times with PBST. Enhanced chemiluminescent or SuperSignal West femto maximum sensitivity substrates (Pierce) were used to develop blots. Mean dot densities were quantified and normalized to ponceau S dot densities using Image J software (National Institutes of Health (NIH), Bethesda, MD).
Blots were incubated with rocking overnight at 4°C.
All statistics were performed using Graph Pad Prism 6 (GraphPad Software, La Jolla, CA). Data are represented as mean± SEM of results. […] To obtain dissociation constants (Kd), half-maximal inhibitory concentrations (IC50), and maximum absorbance values, BSA was subtracted as background and values were fitted to a curve of nonlinear regression.

[4] = target: T3, RAGE Fc chimera (Homo sapiens, UniProt Q15109); experiment: ELISA: binding of RAGE to coated neutrophil proteins; set-up: purchased R&D Systems Inc. (Minneapolis, MN); details: for Log binding (RAGE): wells coated 0.5 μg/well protein, log-transformed OD 492 nm, mean ± SEM
T3 sequence (Q15109 with tags, fused parts or gaps limits assumed): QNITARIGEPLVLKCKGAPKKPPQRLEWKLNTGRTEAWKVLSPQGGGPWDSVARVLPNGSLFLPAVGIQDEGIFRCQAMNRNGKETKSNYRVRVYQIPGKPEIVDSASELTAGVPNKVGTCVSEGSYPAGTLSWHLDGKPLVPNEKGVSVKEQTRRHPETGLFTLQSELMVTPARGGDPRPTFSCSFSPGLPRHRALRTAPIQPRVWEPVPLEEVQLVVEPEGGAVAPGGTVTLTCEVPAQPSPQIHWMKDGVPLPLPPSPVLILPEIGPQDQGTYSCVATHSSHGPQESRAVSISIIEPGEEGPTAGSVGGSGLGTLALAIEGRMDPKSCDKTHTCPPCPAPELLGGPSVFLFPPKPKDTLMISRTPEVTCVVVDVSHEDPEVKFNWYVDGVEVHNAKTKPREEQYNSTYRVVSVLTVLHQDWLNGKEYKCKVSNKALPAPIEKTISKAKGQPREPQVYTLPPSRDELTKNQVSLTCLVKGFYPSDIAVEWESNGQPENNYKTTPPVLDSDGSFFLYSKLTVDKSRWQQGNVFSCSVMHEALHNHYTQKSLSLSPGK
Description: as §1
Goat anti-RAGE primary antibody at 0.5 μg/ml was used to detect bound RAGE.
as §2

[5] = target: T3, RAGE Fc chimera; experiment: Far-Western dot blot: binding of RAGE to spotted proteins ± GM-0111; set-up: purchased R&D Systems Inc. (Minneapolis, MN); details: 1 μg spotted protein (0.5 μg Aβ1–42)
Description: as §2

[6] = target: T3, RAGE Fc chimera; experiment: ELISA: Aβ1–42 binding to RAGE after pre-incubation of Aβ1–42 with neutrophil proteins; set-up: purchased R&D Systems Inc. (RAGE Fc chimera); Bachem (Aβ1–42); details: for Kd: read-out: KD value for Aβ1–42 binding to RAGE
Description: as §1
In this set of experiments, the maxisorp plates were coated with RAGE Fc chimera (0.5 μg/well, 83.3 nM) overnight at 4°C.
as §2

T1 sequence (Q15109 with tags, fused parts or gaps limits assumed): as above

B1: cationic antimicrobial protein of 37kDa (protein)
chain: IVGGRKARPRQFPFLASIQNQGRHFCGGALIHARFVMTAASCFQSQNPGVSTVVLGAYDLRRRERQSRQTFSISSMSENGYDPQQNLNDLMLLQLDREANLTSSVTILPLPLQNATVEAGTRCQVAGWGSQRSGGRLSRFPRFVNVTVTPEDQCRPNNVCTGVLTRRGGICNGDGGTPLVCEGLAHGVASFSLGPCGRGPDFFTRVALFRDWIDGVLNNPGPGPA
notes: neutrophil protein purified from human neutrophils (Athens Research & Technology)
In the case of B1, the “maximal inhibition of Aβ1–42 binding to RAGE in the absence of protease inhibitors” value ([1]; no protease inhibitors, highest dose of protein) is reported as “complete”, the “inhibition of Aβ1–42 binding to RAGE in the presence of protease inhibitors” value ([1]; with protease inhibitor cocktail, Aβ1–42 11 nM) is reported as “only partial” and the “Log binding (Aβ1–42)” value ([2]; Aβ1–42 0 nM (background)) is reported as “• -0.907±0.139 • p = 0.005”. For the same molecule, the “Log binding (Aβ1–42)” value ([2]; Aβ1–42 3.47 nM) was “• -0.556±0.047 • p<0.0001”, the “Log binding (Aβ1–42)” value ([2]; Aβ1–42 13.89 nM) was “• -0.138±0.047 • p<0.0001” and the “Log binding (Aβ1–42)” value ([2]; Aβ1–42 27.78 nM) was “• 0.137±0.043 • p<0.0001”. The “Log binding (Aβ1–42)” value ([2]; Aβ1–42 55.56 nM) was “• 0.304±0.039 • p<0.0001”, the “maximum absorbance value for Aβ1–42 binding” value ([2]; ELISA with protease inhibitors, BSA subtracted, nonlinear regression fit) was 2.86 and the “binding of Aβ1–42 (far-Western dot blot)” value [3] was “strong binding”. For the same molecule, the “maximum absorbance value for RAGE binding” value ([4]; ELISA, BSA subtracted as background, nonlinear regression fit) was 2.49, the “Log binding (RAGE)” value ([4]; RAGE 0 nM (background)) was -0.623 and the “Log binding (RAGE)” value ([4]; RAGE 0.83 nM) was “• 0.112±0.041 • p<0.0001”. The “Log binding (RAGE)” value ([4]; RAGE 1.67 nM) was “• 0.228±0.043 • p<0.0001”, the “Log binding (RAGE)” value ([4]; RAGE 3.33 nM) was “• 0.325±0.064 • p<0.0001” and the “binding of RAGE (far-Western dot blot)” value [5] was “strong binding”. The “maximum absorbance (MA) for Aβ1–42 binding to RAGE” value ([6]; Aβ1–42 pre-incubated with CAP37 500 ng/ml) was 3.05, the “maximum absorbance (MA) for Aβ1–42 binding to RAGE” value ([6]; Aβ1–42 pre-incubated with CAP37 1 μg/ml) was 3.70 and the “maximum absorbance value for Aβ1–42 binding to RAGE” value ([6]; Aβ1–42 pre-incubated with CAP37 2 μg/ml) was 3.27 OD 492 nm. It also gave a Kd ([6]; Aβ1–42 pre-incubated overnight 4°C with CAP37 500 ng/ml (21 nM)) of 13.8 nM, a Kd ([6]; Aβ1–42 pre-incubated overnight 4°C with CAP37 1 μg/ml (42 nM)) of 59.3 nM and a Kd ([6]; Aβ1–42 pre-incubated overnight 4°C with CAP37 2 μg/ml (83 nM)) of 149 nM.

Reference: paper PMC5038948, “The Role of Neutrophil Proteins on the Amyloid Beta-RAGE Axis” (PLoS ONE, 2016)
